Data as given in patent publication US10450368 (DUKE UNIVERSITY, dated 2019).

How the values were obtained:
Centromere B = molecular target: T1, Centromere B (UniProt P07199 1-599); experiment: AtheNA, Ab 12.5 ug/ml
T1 construct: also called Cent B
T1 sequence: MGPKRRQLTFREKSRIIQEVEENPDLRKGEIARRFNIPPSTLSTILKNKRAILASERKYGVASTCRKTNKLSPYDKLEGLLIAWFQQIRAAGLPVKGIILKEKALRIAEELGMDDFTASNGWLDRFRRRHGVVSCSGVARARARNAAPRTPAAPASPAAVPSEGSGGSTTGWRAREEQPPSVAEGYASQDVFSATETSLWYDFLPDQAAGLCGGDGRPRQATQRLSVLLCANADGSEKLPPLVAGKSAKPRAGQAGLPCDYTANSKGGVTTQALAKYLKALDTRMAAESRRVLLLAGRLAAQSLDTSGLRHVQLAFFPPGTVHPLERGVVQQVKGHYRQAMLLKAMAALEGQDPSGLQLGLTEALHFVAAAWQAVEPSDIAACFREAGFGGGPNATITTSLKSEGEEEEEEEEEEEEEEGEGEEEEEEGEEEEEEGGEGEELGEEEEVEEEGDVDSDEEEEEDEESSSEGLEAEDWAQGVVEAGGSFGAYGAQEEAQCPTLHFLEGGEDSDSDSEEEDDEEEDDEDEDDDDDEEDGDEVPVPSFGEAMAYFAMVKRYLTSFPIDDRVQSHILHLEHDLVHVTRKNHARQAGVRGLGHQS

SSB [1] = molecular target: T2, SSB (UniProt P05455 1-408); experiment: AtheNA, Ab 12.5 ug/ml
T2 sequence: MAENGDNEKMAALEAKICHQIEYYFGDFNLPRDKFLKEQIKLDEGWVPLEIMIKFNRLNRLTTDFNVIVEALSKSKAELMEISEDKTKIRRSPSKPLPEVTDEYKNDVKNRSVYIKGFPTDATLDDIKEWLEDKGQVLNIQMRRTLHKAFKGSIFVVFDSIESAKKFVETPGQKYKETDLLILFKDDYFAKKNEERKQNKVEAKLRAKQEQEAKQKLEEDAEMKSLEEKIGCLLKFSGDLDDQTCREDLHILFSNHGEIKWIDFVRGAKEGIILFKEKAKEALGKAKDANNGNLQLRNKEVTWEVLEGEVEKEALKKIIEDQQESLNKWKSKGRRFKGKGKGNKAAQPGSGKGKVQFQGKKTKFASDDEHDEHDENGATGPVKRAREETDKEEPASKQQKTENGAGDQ

SSA [2] = molecular target: T3, SSA; experiment: AtheNA, Ab 12.5 ug/ml
T3 construct: also called SSA (Ro)

Histones [3] = molecular target: T4, Histones; experiment: AtheNA, Ab 12.5 ug/ml
T4 construct: Mixture of proteins

Scl-70 [4] = molecular target: T5, Scl-70 (UniProt P11387 1-765); experiment: AtheNA, Ab 12.5 ug/ml
T5 sequence: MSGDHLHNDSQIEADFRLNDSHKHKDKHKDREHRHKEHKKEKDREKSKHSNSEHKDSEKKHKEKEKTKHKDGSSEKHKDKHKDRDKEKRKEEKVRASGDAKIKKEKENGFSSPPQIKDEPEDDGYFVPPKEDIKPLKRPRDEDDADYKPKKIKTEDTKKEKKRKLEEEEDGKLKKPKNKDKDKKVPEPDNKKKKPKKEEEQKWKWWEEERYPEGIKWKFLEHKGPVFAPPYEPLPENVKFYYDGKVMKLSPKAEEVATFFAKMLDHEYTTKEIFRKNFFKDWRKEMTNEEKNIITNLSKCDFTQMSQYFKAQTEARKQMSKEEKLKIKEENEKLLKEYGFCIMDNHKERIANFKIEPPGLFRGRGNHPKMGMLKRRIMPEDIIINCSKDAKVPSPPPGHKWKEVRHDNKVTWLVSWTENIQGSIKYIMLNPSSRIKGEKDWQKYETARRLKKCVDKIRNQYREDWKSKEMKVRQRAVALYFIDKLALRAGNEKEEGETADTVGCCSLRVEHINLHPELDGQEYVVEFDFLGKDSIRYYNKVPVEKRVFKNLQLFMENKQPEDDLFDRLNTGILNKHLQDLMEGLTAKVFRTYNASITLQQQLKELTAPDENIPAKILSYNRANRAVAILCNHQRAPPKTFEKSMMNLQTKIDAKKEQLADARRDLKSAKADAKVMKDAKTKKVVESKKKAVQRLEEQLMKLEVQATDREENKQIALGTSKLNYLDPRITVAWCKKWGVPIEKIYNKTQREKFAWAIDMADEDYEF

SSB [5] = molecular target: T2, SSB; experiment: AtheNA, Ab 50 ug/ml
Excerpt: (§1) AtheNA Multi-Lyte ANA Plus Test System is one such assay. This is luminex-based assay, which is also used to screen patient sera.

SSA [6] = molecular target: T3, SSA; experiment: AtheNA, Ab 50 ug/ml
Excerpt: as §1

Histones [7] = molecular target: T4, Histones; experiment: AtheNA, Ab 50 ug/ml
Excerpt: as §1

Sm (Smith antigen) [8] = molecular target: T6, Sm (Smith antigen); experiment: AtheNA, Ab 50 ug/ml
T6 construct: Protein complex
Excerpt: as §1

RNP (ribonucleoprotein) [9] = molecular target: T7, RNP (ribonucleoprotein); experiment: AtheNA, Ab 50 ug/ml
T7 construct: Protein-RNA complex
Excerpt: as §1

Scl-70 [10] = molecular target: T5, Scl-70; experiment: AtheNA, Ab 50 ug/ml
Excerpt: as §1

SSB [11] = molecular target: T2, SSB; experiment: AtheNA, Ab 25 ug/ml
Excerpt: as §1

SSA [12] = molecular target: T3, SSA; experiment: AtheNA, Ab 25 ug/ml
Excerpt: as §1

Histones [13] = molecular target: T4, Histones; experiment: AtheNA, Ab 25 ug/ml
Excerpt: as §1

Sm (Smith antigen) [14] = molecular target: T6, Sm (Smith antigen); experiment: AtheNA, Ab 25 ug/ml
Excerpt: as §1

RNP (ribonucleoprotein) [15] = molecular target: T7, RNP (ribonucleoprotein); experiment: AtheNA, Ab 25 ug/ml
Excerpt: as §1

Scl-70 [16] = molecular target: T5, Scl-70; experiment: AtheNA, Ab 25 ug/ml
Excerpt: as §1

B1: CH557 (antibody, V domains shown)
VH: QVRLAQYGGGVKRLGATMTLSCVASGYTFNDYYIHWVRQAPGQGFELLGYIDPANGRPDYAGALRERLSFYRDKSMETLYMDLRSLRYDDTAMYYCVRNVGTAGSLLHYDHWGSGSPVIVSS
VL: EIVLTQSPATLSASPGERVTLTCRASRSVRNNVAWYQHKGGQSPRLLIYDASTRAAGVPARFSGSASGTEFTLAISNLESEDFTVYFCLQYNNWWTFGQGTRVDIK
notes: also called CH235.12; CH557_4A/293i
For B1, the AtheNA signal (Centromere B) was 16 relative luminescence units, the AtheNA signal (SSB [1]) was 9 relative luminescence units and the AtheNA signal (SSA [2]) was 3 relative luminescence units. The AtheNA signal (Histones [3]) was 6 relative luminescence units and the AtheNA signal (Scl-70 [4]) was 3 relative luminescence units.

B2: CH493 (antibody, V domains shown)
VH: QVRLLQYGGGVKRPGASMTISCVASGYNFNDYYIHWVRQAPGQGLELMGWIDPSGGRTDYAGAFGDRVSMYRDKSMNTLYMDLRSLRSGDTAMYYCVRNVGTAGSLLHYDHWGLGVMVTVSS
VL: EIVLTQSPATLSVSPGERVTLSCRASQSVRNNLAWYRQKRGQAPRLLIYGASTRATGIPARFSGSGSGTEFTLTISSMQSEDFAVYYCQQYNNWWTFGQGTKVEIK
notes: also called CH235.9; DH493
B2 gave an AtheNA signal (SSB [5]) of 70, an AtheNA signal (SSA [6]) of 155 and an AtheNA signal (Histones [7]) of 166. For the same binder, the AtheNA signal (Sm (Smith antigen) [8]) was 37, the AtheNA signal (RNP (ribonucleoprotein) [9]) was 69 and the AtheNA signal (Scl-70 [10]) was 36. For the same binder, the AtheNA signal (SSB [11]) was 38, the AtheNA signal (SSA [12]) was 100 and the AtheNA signal (Histones [13]) was 202. It also gave an AtheNA signal (Sm (Smith antigen) [14]) of 53, an AtheNA signal (RNP (ribonucleoprotein) [15]) of 55 and an AtheNA signal (Scl-70 [16]) of 34.
